A word on the stoichiometry N: it is a count of units in the complex or per binding partner.

Consider three molecules from paper PMC5901963 (Nature, 2017).

The target of series [1] is bacTMEM175 from Chryseobacterium sp (Chryseobacterium sp). Description: cross-linking.
The target of series [2] is bacTMEM175 from Streptomyces collinus (Streptomyces collinus). Description: cross-linking.
The series “crystal structure” deals with the molecule itself. Description: crystal structure.

On to “bacTMEM175 from Chryseobacterium sp (natural protein)”, for which the stoichiometry N in series [1] was determined as 4. Regarding “bacTMEM175 from Streptomyces collinus (natural protein)”, the stoichiometry N in series [2] was 4.

B1: TMEM175 from Chamaesiphon minutus (CmTMEM175) (natural protein, UniProt K9UJK2 1-203, looked up)
chain: MVEAPEQSETGRIEAFSDGVFAIAITLLVLEIKVPQHKIVETVGLVSSLLSLWPSYLAFLTSFASILVMWVNHHRIFSLVARTDHAFFYWNGLLLMLVTFVPFPTALLAEYLIHPQARVAASVYAGIFLAIAIVFNRLWKHAATADRLLAQKADRHEVDAITKQYRFGPGLYLVAFALSFISVWLSVGVCFVLAIYFALRSNA
With B1, the “stoichiometry N” value in the series “crystal structure” stood at 4.
